This is an account of results in paper PMC8413892.

For experiment [1], the target named is Kir1.1 channel (human) (UniProt P48048).
Experiment [2] concerns the target Kir4.1 channel (human) (UniProt P78508).
Experiment [3] concerns the target Kir1.1 channel (human) (UniProt P48048). This is another data set of the same source.
Experiment [4] deals with Kir4.1 channel (human) (UniProt P78508). This is another data set of the same source.

Read-outs that look alike come from different tables or passages of the source.

Sequence of UniProt P48048 (P48048 whole entry): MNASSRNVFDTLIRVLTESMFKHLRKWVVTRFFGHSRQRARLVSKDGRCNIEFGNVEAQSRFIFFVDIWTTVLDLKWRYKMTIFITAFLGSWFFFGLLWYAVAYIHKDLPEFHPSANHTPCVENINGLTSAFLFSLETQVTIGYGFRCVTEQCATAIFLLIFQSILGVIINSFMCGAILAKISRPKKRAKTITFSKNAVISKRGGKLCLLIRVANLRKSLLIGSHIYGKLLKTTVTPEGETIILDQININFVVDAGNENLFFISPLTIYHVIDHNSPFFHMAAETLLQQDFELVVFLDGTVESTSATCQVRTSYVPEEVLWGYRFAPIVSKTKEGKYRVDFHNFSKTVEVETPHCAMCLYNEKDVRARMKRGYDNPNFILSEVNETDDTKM
Sequence of UniProt P78508 (P78508 whole entry): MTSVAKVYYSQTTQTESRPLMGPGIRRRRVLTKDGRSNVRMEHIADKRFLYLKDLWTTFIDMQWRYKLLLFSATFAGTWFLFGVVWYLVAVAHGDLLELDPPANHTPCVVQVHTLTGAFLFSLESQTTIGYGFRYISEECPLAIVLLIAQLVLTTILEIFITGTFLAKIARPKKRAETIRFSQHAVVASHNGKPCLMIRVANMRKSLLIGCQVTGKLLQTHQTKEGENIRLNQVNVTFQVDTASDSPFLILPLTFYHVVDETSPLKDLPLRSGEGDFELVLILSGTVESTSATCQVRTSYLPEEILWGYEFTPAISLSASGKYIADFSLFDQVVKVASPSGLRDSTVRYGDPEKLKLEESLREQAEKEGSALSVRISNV

As to recombinant SsTx-4 (peptide), the IC50 of inhibition of Kir1.1 currents at −40 mV, whole-cell patch clamp, HEK293T with Kir1.1 channel (human) [1] is 0.0604 µM. Further, the IC50 of inhibition of Kir4.1 currents at −40 mV, whole-cell patch clamp, HEK293T in the experiment with Kir4.1 channel (human) [2] was 5.6 µM.

Turning to native SsTx-4 (peptide), the IC50 of inhibition of Kir1.1 currents at −40 mV, whole-cell patch clamp, HEK293T with Kir1.1 channel (human) [3] came out at 0.21 µM. Further, the IC50 of inhibition of Kir4.1 currents at −40 mV, whole-cell patch clamp, HEK293T in the experiment with Kir4.1 channel (human) [4] amounted to 6.2 µM.
